B1: C10orf62 (parent)
chain: RALEEVEMKLQKNFLTQRENTIAG
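Further: lentivirally expressed fusions sorted by FACS into six bins by GFP to DsRed ratio, PSI derived from sequencing read proportions per bin multiplied by bin number.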

Variants of: B1
Assay: protein stability index of a GFP-peptide fusion (GPS, HEK-293T) (PSI 1-6); higher = more stable
Details: c terminus: a fixed tail appended
Work on RALEEVEMKLQKNRLTQRENTIAG [F14R] yielded a protein stability index of 4.33.
Work on RALEEVEMKLQKNSLTQRENTIAG [F14S] yielded a protein stability index of 4.37.
For RALEEVEMKLQKNVLTQRENTIAG [F14V], the protein stability index was 3.97.
With RALEEVEMKLQKNILTQRENTIAG [F14I] the protein stability index was 3.86.
Work on RALEEVEMKLQKNCLTQRENTIAG [F14C] yielded a protein stability index of 4.29.
RALEEVEMKLQKNWLTQRENTIAG [F14W] showed a protein stability index of 3.61.
Variant RALEEVEMKLQKNYLTQRENTIAG [F14Y] has a protein stability index of 3.69.
RALEEVEMKLQKNLLTQRENTIAG [F14L] gave a protein stability index of 4.64.
For RALEEVEMKLQKNELTQRENTIAG [F14E], the protein stability index was 4.61.
Work on RALEEVEMKLQKNQLTQRENTIAG [F14Q] yielded a protein stability index of 4.45.
Work on RALEEVEMKLQKNNLTQRENTIAG [F14N] yielded a protein stability index of 4.49.
Work on RALEEVEMKLQKNPLTQRENTIAG [F14P] yielded a protein stability index of 4.66.
RALEEVEMKLQKNMLTQRENTIAG [F14M] showed a protein stability index of 3.82.
For RALEEVEMKLQKNHLTQRENTIAG [F14H], the protein stability index was 4.47.
Work on RALEEVEMKLQKNTLTQRENTIAG [F14T] yielded a protein stability index of 4.11.
With RALEEVEMKLQKNDLTQRENTIAG [F14D] the protein stability index was 4.66.
With RALEEVEMKLQKNGLTQRENTIAG [F14G] the protein stability index was 4.11.
RALEEVEMKLQKNALTQRENTIAG [F14A] showed a protein stability index of 4.72.
Variant RALEEVEMKLQKNKLTQRENTIAG [F14K] has a protein stability index of 4.11.
RALEEYEMKLQKNFLTQRENTIAG [V6Y] showed a protein stability index of 4.03.
With RALEEKEMKLQKNFLTQRENTIAG [V6K] the protein stability index was 4.43.
RALEEIEMKLQKNFLTQRENTIAG [V6I] gave a protein stability index of 2.52.
Work on RALEEQEMKLQKNFLTQRENTIAG [V6Q] yielded a protein stability index of 3.93.
With RALEETEMKLQKNFLTQRENTIAG [V6T] the protein stability index was 3.73.
With RALEEREMKLQKNFLTQRENTIAG [V6R] the protein stability index was 4.13.
RALEESEMKLQKNFLTQRENTIAG [V6S] showed a protein stability index of 4.27.
With RALEELEMKLQKNFLTQRENTIAG [V6L] the protein stability index was 3.52.
In the case of RALEENEMKLQKNFLTQRENTIAG [V6N], the protein stability index is reported as 4.33.
RALEEWEMKLQKNFLTQRENTIAG [V6W] showed a protein stability index of 3.76.
Variant RALEEPEMKLQKNFLTQRENTIAG [V6P] has a protein stability index of 4.17.
In the case of RALEEHEMKLQKNFLTQRENTIAG [V6H], the protein stability index is reported as 4.58.
With RALEEMEMKLQKNFLTQRENTIAG [V6M] the protein stability index was 3.23.
RALEEVEMKLQNNFLTQRENTIAG [K12N] gave a protein stability index of 4.44.
RALEEVEMKLQGNFLTQRENTIAG [K12G] showed a protein stability index of 3.77.
RALEEVEMKLQYNFLTQRENTIAG [K12Y] showed a protein stability index of 2.3.
RALEEVEMKLQANFLTQRENTIAG [K12A] gave a protein stability index of 3.77.
RALEEVEMKLQWNFLTQRENTIAG [K12W] showed a protein stability index of 1.94.
Work on RALEEVEMKLQENFLTQRENTIAG [K12E] yielded a protein stability index of 4.05.
Variant RALEEVEMKLQRNFLTQRENTIAG [K12R] has a protein stability index of 3.31.
With RALEEVEMKLQMNFLTQRENTIAG [K12M] the protein stability index was 2.86.
Work on RALEEVEMKLQCNFLTQRENTIAG [K12C] yielded a protein stability index of 3.3.
Variant RALEEVEMKLQINFLTQRENTIAG [K12I] has a protein stability index of 2.15.
For RALEEVEMKLQSNFLTQRENTIAG [K12S], the protein stability index was 2.77.
Work on RALEEVEMKLQPNFLTQRENTIAG [K12P] yielded a protein stability index of 4.14.
RALEEVEMKLQTNFLTQRENTIAG [K12T] showed a protein stability index of 4.2.
Work on RALEEVEMKLQQNFLTQRENTIAG [K12Q] yielded a protein stability index of 3.72.
Work on RALEEVEMKLQHNFLTQRENTIAG [K12H] yielded a protein stability index of 3.43.
For RALEEVEMKLQVNFLTQRENTIAG [K12V], the protein stability index was 2.31.
In the case of RALEEVEMKLQDNFLTQRENTIAG [K12D], the protein stability index is reported as 4.03.
Variant RALEEVEMKLQFNFLTQRENTIAG [K12F] has a protein stability index of 2.
With RALEEVEMKLQLNFLTQRENTIAG [K12L] the protein stability index was 2.67.
With RALEEVEMKIQKNFLTQRENTIAG [L10I] the protein stability index was 3.5.
RALEEVEMKNQKNFLTQRENTIAG [L10N] showed a protein stability index of 4.25.
Work on RALEEVEMKRQKNFLTQRENTIAG [L10R] yielded a protein stability index of 3.4.
In the case of RALEEVEMKDQKNFLTQRENTIAG [L10D], the protein stability index is reported as 4.56.
RALEEVEMKYQKNFLTQRENTIAG [L10Y] gave a protein stability index of 3.67.
RALEEVEMKFQKNFLTQRENTIAG [L10F] gave a protein stability index of 3.37.
For RALEEVEMKEQKNFLTQRENTIAG [L10E], the protein stability index was 5.17.
In the case of RALEEVEMKKQKNFLTQRENTIAG [L10K], the protein stability index is reported as 4.35.
In the case of RALEEVEMKSQKNFLTQRENTIAG [L10S], the protein stability index is reported as 4.66.
Work on RALEEVEMKVQKNFLTQRENTIAG [L10V] yielded a protein stability index of 4.04.
With RALEEVEMKAQKNFLTQRENTIAG [L10A] the protein stability index was 4.13.
Variant RALEEVEMKPQKNFLTQRENTIAG [L10P] has a protein stability index of 4.4.
Variant RALEEVEMKGQKNFLTQRENTIAG [L10G] has a protein stability index of 4.29.
Variant RALEEVEMKQQKNFLTQRENTIAG [L10Q] has a protein stability index of 3.22.
RALEEVEMKMQKNFLTQRENTIAG [L10M] showed a protein stability index of 3.75.
Work on RALEEVEMKWQKNFLTQRENTIAG [L10W] yielded a protein stability index of 2.88.
RALEEVEMKCQKNFLTQRENTIAG [L10C] showed a protein stability index of 3.58.
In the case of RALEEVEMKHQKNFLTQRENTIAG [L10H], the protein stability index is reported as 4.
For RALEEVEMKTQKNFLTQRENTIAG [L10T], the protein stability index was 4.4.
With RALEEVEMKLQKMFLTQRENTIAG [N13M] the protein stability index was 3.02.
Variant RALEEVEMKLQKHFLTQRENTIAG [N13H] has a protein stability index of 2.72.
RALEEVEMKLQKRFLTQRENTIAG [N13R] showed a protein stability index of 3.42.
Variant RALEEVEMKLQKIFLTQRENTIAG [N13I] has a protein stability index of 1.76.
Variant RALEEVEMKLQKKFLTQRENTIAG [N13K] has a protein stability index of 3.3.
RALEEVEMKLQKYFLTQRENTIAG [N13Y] gave a protein stability index of 2.62.
RALEEVEMKLQKSFLTQRENTIAG [N13S] showed a protein stability index of 3.52.
RALEEVEMKLQKAFLTQRENTIAG [N13A] gave a protein stability index of 2.58.
RALEEVEMKLQKCFLTQRENTIAG [N13C] showed a protein stability index of 3.23.
For RALEEVEMKLQKQFLTQRENTIAG [N13Q], the protein stability index was 3.4.
RALEEVEMKLQKWFLTQRENTIAG [N13W] gave a protein stability index of 1.36.
With RALEEVEMKLQKEFLTQRENTIAG [N13E] the protein stability index was 3.92.
RALEEVEMKLQKTFLTQRENTIAG [N13T] gave a protein stability index of 3.31.
Variant RALEEVEMKLQKGFLTQRENTIAG [N13G] has a protein stability index of 3.15.
With RALEEVEMKLQKDFLTQRENTIAG [N13D] the protein stability index was 3.89.
For RALEEVEMKLQKPFLTQRENTIAG [N13P], the protein stability index was 3.96.
With RALEEVEMKLQKVFLTQRENTIAG [N13V] the protein stability index was 3.
With RALEEVEMKLQKLFLTQRENTIAG [N13L] the protein stability index was 2.86.
RALEEVEMKLQKFFLTQRENTIAG [N13F] gave a protein stability index of 2.23.
RALEEVEMKLNKNFLTQRENTIAG [Q11N] gave a protein stability index of 3.51.
In the case of RALEEVEMKLFKNFLTQRENTIAG [Q11F], the protein stability index is reported as 2.44.
For RALEEVEMKLYKNFLTQRENTIAG [Q11Y], the protein stability index was 2.78.
RALEEVEMKLLKNFLTQRENTIAG [Q11L] gave a protein stability index of 2.28.
Work on RALEEVEMKLIKNFLTQRENTIAG [Q11I] yielded a protein stability index of 2.13.

From the supplement of paper PMC10567573
